Some targets named below: HLA-A*31:01; HLA-A*11:01; HLA-A*33:01; HLA-A*03:01; HLA-A*68:01.
Holding throughout (test): IEDB peptide-MHC binding, purified MHC/competitive/radioactivity; filed as Kd, often an IC50 or EC50 that approximates it; ≥ and ≤ were set here for values at or beyond the usual limits of such assays
The next assay has as its target HLA-A*02:06. To be noted: source organism: Dengue virus 1 Brazil/97-11/1997.
Where [1] appears, read: source organism: Vaccinia virus WR.
The mark [2] stands for this setting: source organism: SARS coronavirus Tor2.
Setting [3] is: source organism: SARS coronavirus ZJ0301.
[4] abbreviates: source organism: Mammarenavirus brazilense.
The mark [5] stands for this setting: source organism: Lassa virus Josiah.
[6] abbreviates: source organism: Mammarenavirus whitewaterense.

The term Kd denotes a measure of binding affinity in units of concentration.

For the sequence GIVAIDLDPV, in the assay with HLA-A*02:06, the Kd turned out to be 9.7 nM.
Regarding LFYPSMFTLR, the Kd with HLA-A*31:01 (setting [1]) came out at 1.33 nM; with HLA-A*11:01 (setting [1]), 7330 nM; with HLA-A*33:01 (setting [1]) it was 28.9 nM; with HLA-A*03:01 (setting [1]), 1590 nM; in the assay with HLA-A*68:01 (setting [1]) it was 2.66 nM.
Take MAVEVGSIR: the Kd is 279 nM with HLA-A*31:01 (setting [1]); 39.5 nM with HLA-A*11:01 (setting [1]); 245 nM in the assay with HLA-A*33:01 (setting [1]); no less than 78000 nM with HLA-A*03:01 (setting [1]); 1.36 nM with HLA-A*68:01 (setting [1]).
On to ESLLKETIQK, for which the dissociation constant (Kd) with HLA-A*31:01 (setting [1]) amounted to 13200 nM; in the assay with HLA-A*11:01 (setting [1]) it was 9.74 nM; with HLA-A*33:01 (setting [1]), 14800 nM; in the assay with HLA-A*03:01 (setting [1]), 26.7 nM; in the assay with HLA-A*68:01 (setting [1]), 332 nM.
NATFFIFNK: the Kd with HLA-A*31:01 (setting [2]) came to 1710 nM; with HLA-A*11:01 (setting [2]), 87.3 nM; with HLA-A*33:01 (setting [2]), 87.3 nM; in the assay with HLA-A*03:01 (setting [2]), 386 nM; in the assay with HLA-A*68:01 (setting [2]), 19.5 nM.
For the sequence SVQLSNNKY, the Kd with HLA-A*31:01 (setting [1]) was 17500 nM; in the assay with HLA-A*11:01 (setting [1]), 33.1 nM; with HLA-A*33:01 (setting [1]) it was 13600 nM; with HLA-A*03:01 (setting [1]) it was 2710 nM; with HLA-A*68:01 (setting [1]), 1250 nM.
In the same order, the values of IIGPMFSGK are 6320 nM, 1.79 nM, 7360 nM, 0.73 nM and 100 nM.
Turning to FTFGDTALY, the Kd with HLA-A*31:01 (setting [1]) is 14300 nM; with HLA-A*11:01 (setting [1]), 192 nM; with HLA-A*33:01 (setting [1]), no less than 50000 nM; with HLA-A*03:01 (setting [1]), 612 nM; with HLA-A*68:01 (setting [1]) it was 2.27 nM.
In the same order, the values of GTGLWTHDK are 805 nM, 0.361 nM, no less than 65600 nM, 24.7 nM and 156 nM.
In the same order, the values of DLLNVTYNIK are 15200 nM, 302 nM, 1110 nM, 367 nM and 1670 nM.
Regarding LLNSNALLR, the Kd is 148 nM with HLA-A*31:01 (setting [3]); 222 nM in the assay with HLA-A*11:01 (setting [3]); 6980 nM in the assay with HLA-A*33:01 (setting [3]); 14.7 nM in the assay with HLA-A*03:01 (setting [3]); 687 nM with HLA-A*68:01 (setting [3]).
As to CLFDRYFKY, the Kd with HLA-A*31:01 (setting [2]) stood at 215 nM; with HLA-A*11:01 (setting [2]), 0.59 nM; with HLA-A*33:01 (setting [2]), 1550 nM; with HLA-A*03:01 (setting [2]) it was 1.43 nM; in the assay with HLA-A*68:01 (setting [2]) it was 137 nM.
For the sequence IMNLEMIDER, the Kd in the assay with HLA-A*31:01 (setting [1]) is 1280 nM; in the assay with HLA-A*11:01 (setting [1]), 19200 nM; in the assay with HLA-A*33:01 (setting [1]) it was 1560 nM; with HLA-A*03:01 (setting [1]), no less than 70100 nM; with HLA-A*68:01 (setting [1]) it was 3610 nM.
In the case of QAEPSLYGRH, the Kd with HLA-A*31:01 (setting [4]) was no less than 20000 nM; in the assay with HLA-A*11:01 (setting [4]) it was no less than 69700 nM; in the assay with HLA-A*33:01 (setting [4]) it was no less than 70000 nM; in the assay with HLA-A*03:01 (setting [4]), no less than 70000 nM; in the assay with HLA-A*68:01 (setting [4]) it was no less than 70100 nM.
For the sequence TCQGSDDIRK, the Kd with HLA-A*31:01 (setting [5]) was no less than 49900 nM; in the assay with HLA-A*11:01 (setting [5]), 7000 nM; in the assay with HLA-A*33:01 (setting [5]), no less than 70000 nM; in the assay with HLA-A*03:01 (setting [5]) it was no less than 70000 nM; with HLA-A*68:01 (setting [5]), 5710 nM.
Consider TTDDLVKSY, for which the dissociation constant (Kd) was 4700 nM with HLA-A*31:01 (setting [1]); 747 nM with HLA-A*11:01 (setting [1]); 18100 nM with HLA-A*33:01 (setting [1]); no less than 53000 nM with HLA-A*03:01 (setting [1]); 12100 nM in the assay with HLA-A*68:01 (setting [1]).
As for VCFWSTLFY, the Kd in the assay with HLA-A*31:01 (setting [6]) is no less than 77900 nM; in the assay with HLA-A*11:01 (setting [6]) it was 930 nM; with HLA-A*33:01 (setting [6]), no less than 77700 nM; with HLA-A*03:01 (setting [6]), 138 nM; with HLA-A*68:01 (setting [6]), no less than 39200 nM.
KIAPGIADIR: the Kd with HLA-A*31:01 (setting [1]) is 355 nM; with HLA-A*11:01 (setting [1]) it was 4510 nM; in the assay with HLA-A*33:01 (setting [1]), no less than 53900 nM; with HLA-A*03:01 (setting [1]) it was 1660 nM; with HLA-A*68:01 (setting [1]) it was 5400 nM.
In the same order, the values of IITVGMLIY are 1080 nM, 6770 nM, 1150 nM, 1520 nM and 608 nM.
On the same counts, the results for TVLPHLCLDY are 598 nM, 2.99 nM, 6050 nM, 4.08 nM and 701 nM.
On to TTTIKPVSYK, for which the Kd with HLA-A*31:01 (setting [2]) was 1460 nM; with HLA-A*11:01 (setting [2]), 20.4 nM; in the assay with HLA-A*33:01 (setting [2]), 10600 nM; with HLA-A*03:01 (setting [2]) it was 11.6 nM; in the assay with HLA-A*68:01 (setting [2]), 99.1 nM.
On to NISFKSINK, for which the Kd is 9770 nM in the assay with HLA-A*31:01 (setting [1]); 41.3 nM with HLA-A*11:01 (setting [1]); 3180 nM with HLA-A*33:01 (setting [1]); 14.9 nM in the assay with HLA-A*03:01 (setting [1]); 119 nM with HLA-A*68:01 (setting [1]).
Take AQALNTLVK: the Kd with HLA-A*31:01 (setting [2]) was 3640 nM; with HLA-A*11:01 (setting [2]), 15.9 nM; with HLA-A*33:01 (setting [2]) it was no less than 28700 nM; in the assay with HLA-A*03:01 (setting [2]), 247 nM; with HLA-A*68:01 (setting [2]) it was 1630 nM.

Values taken from the Immune Epitope Database (IEDB).
